According to article PMC11602133:

Target: T1, … 3 (SEP3), in vitro produced (Arabidopsis), O22456
T1 chain: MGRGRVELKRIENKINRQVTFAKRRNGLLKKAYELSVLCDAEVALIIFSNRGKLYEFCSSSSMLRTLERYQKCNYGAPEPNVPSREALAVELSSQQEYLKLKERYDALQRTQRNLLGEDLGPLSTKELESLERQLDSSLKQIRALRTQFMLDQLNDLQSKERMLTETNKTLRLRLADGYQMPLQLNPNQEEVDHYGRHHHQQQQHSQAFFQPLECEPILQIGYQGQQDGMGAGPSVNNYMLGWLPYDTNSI
Assay: native gel or EMSA; in vitro produced proteins (wheat germ TnT) mixed with a DY-682 labelled ~100 bp DNA probe containing a CArG-box (SAUR10 probe); protein complexes read from the shifted bands on DNA; anti-FLAG antibody added for supershift where FUL-FLAG was used
Details: remark: other sources report otherwise

B1: … 3 (SEP3), in vitro produced, O22456 1-251 (natural protein)
chain: MGRGRVELKRIENKINRQVTFAKRRNGLLKKAYELSVLCDAEVALIIFSNRGKLYEFCSSSSMLRTLERYQKCNYGAPEPNVPSREALAVELSSQQEYLKLKERYDALQRTQRNLLGEDLGPLSTKELESLERQLDSSLKQIRALRTQFMLDQLNDLQSKERMLTETNKTLRLRLADGYQMPLQLNPNQEEVDHYGRHHHQQQQHSQAFFQPLECEPILQIGYQGQQDGMGAGPSVNNYMLGWLPYDTNSI
Q: B1 was tested. Which stoichiometry N did it give?
A: 2
